In patent US20120052092A1 one finds Kd data, which are given here for two substances.

Test [1] concerns the target fHbp Variant 2 (Neisseria meningitidis). Nature of the test: SPR.
Test [2] addresses fHbp Variant 3 (Neisseria meningitidis). Nature of the test: SPR. (In general: SPR reads the build-up and loss of mass on a sensor chip optically.)
In test [3] the target is factor H binding protein (wild type, variant 1) (UniProt E6MV22). The experiment in a line: SPR; sensorgram.
Test [4] has the same target. The experiment in a line: SPR.

Sequence of fH678 (P08603 321-509): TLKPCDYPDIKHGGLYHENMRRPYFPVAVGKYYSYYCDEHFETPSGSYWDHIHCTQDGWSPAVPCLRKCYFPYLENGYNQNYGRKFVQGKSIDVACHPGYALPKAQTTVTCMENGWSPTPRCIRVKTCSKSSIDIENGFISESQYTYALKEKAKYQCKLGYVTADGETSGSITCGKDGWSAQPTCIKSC

One may read the Kd as the concentration at which binding is half-saturated. Turning to FH67 N339E M340S, the Kd worked out at 44 nM in test [1] and 165 nM in test [2].
As for fH678 (from UniProt P08603 321-509), the Kd in test [3] came out at 4.69 nM; in test [4], 5 nM.
